Series [1] concerns HeLa Kyoto. The series can be described thus: melting temperature (median over replicates), in situ; higher = more thermally stable.
Series [2] has as its system HeLa Kyoto. The series can be described thus: solubility change mitosis vs G1/S (difference of NP-40 vs SDS log2 ratios) (log2 ratio difference); higher = more soluble in mitosis.
Series [3] relates to HeLa Kyoto. The series can be described thus: thermal stability score vs G1/S (z-score of summed log2 fold changes over temperatures); higher = more thermally stable than in G1/S.
Series [4] has as its system HeLa Kyoto. Briefly: solubility in G1/S (NP-40 vs SDS abundance) (log2 ratio); higher = more soluble. Particulars: cell cycle stage: G1/S.
The mark [5] stands for this setting: cell cycle stage: early G1 (4.5 h after nocodazole release).
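For melting temperature (median over replicates), in situ in this document: HeLa Kyoto cells synchronized by double thymidine or nocodazole block, proteins quantified by TMT10plex mass spectrometry, three independent biological replicates.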
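For solubility change mitosis vs G1/S (difference of NP-40 vs SDS log2 ratios) in this document: synchronized HeLa Kyoto cells (double thymidine block for G1/S, nocodazole release for mitosis), protein amounts in NP-40 versus SDS lysates quantified by mass spectrometry, three biological replicates.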
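For solubility in G1/S (NP-40 vs SDS abundance) in this document: HeLa Kyoto cells arrested at G1/S by double thymidine block, proteins quantified by TMT10plex mass spectrometry in mild NP-40 versus SDS extracts, three biological replicates.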
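For thermal stability score vs G1/S (z-score of summed log2 fold changes over temperatures) in this document: synchronized HeLa Kyoto cells, proteins quantified by TMT10plex mass spectrometry, three biological replicates, mitosis taken 0.5 h after nocodazole release, G1/S directly after double thymidine block.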

Consider “MSPVLHFYVRPSGHEGAAPGHTRRKLQGKLPELQGVETELCYNVNWTAEALPSAEETKKLMWLFGCPLLLDDVARESWLLPGSNDLLLEVGPRLNFSTPTSTNIVSVCRATGLGPVDRVETTRRYRLSFAHPPSAEVEAIALATLHDRMTEQHFPHPIQSFSPESMPEPLNGPINILGEGRLALEKANQELGLALDSWDLDFYTKRFQELQRNPSTVEAFDLAQSNSEHSRHWFFKGQLHVDGQKLVHSLFESIMSTQESSNPNNVLKFCDNSSAIQGKEVRFLRPEDPTRPSRFQQQQGLRHVVFTAETHNFPTGVCPFSGATTGTGGRIRDVQCTGRGAHVVAGTAGYCFGNLHIPGYNLPWEDPSFQYPGNFARPLEVAIEASNGASDYGNKFGEPVLAGFARSLGLQLPDGQRREWIKPIMFSGGIGSMEADHISKEAPEPGMEVVKVGGPVYRIGVGGGAASSVQVQGDNTSDLDFGAVQRGDPEMEQKMNRVIRACVEAPKGNPICSLHDQGAGGNGNVLKELSDPAGAIIYTSRFQLGDPTLNALEIWGAEYQESNALLLRSPNRDFLTHVSARERCPACFVGTITGDRRIVLVDDRECPVRRNGQGDAPPTPLPTPVDLELEWVLGKMPRKEFFLQRKPPMLQPLALPPGLSVHQALERVLRLPAVASKRYLTNKVDRSVGGLVAQQQCVGPLQTPLADVAVVALSHEELIGAATALGEQPVKSLLDPKVAARLAVAEALTNLVFALVTDLRDVKCSGNWMWAAKLPGEGAALADACEAMVAVMAALGVAVDGGKDSLSMAARVGTETVRAPGSLVISAYAVCPDITATVTPDLKHPEGRGHLLYVALSPGQHRLGGTALAQCFSQLGEHPPDLDLPENLVRAFSITQGLLKDRLLCSGHDVSDGGLVTCLLEMAFAGNCGLQVDVPVPRVDVLSVLFAEEPGLVLEVQEPDLAQVLKRYRDAGLHCLELGHTGEAGPHAMVRVSVNGAVVLEEPVGELRALWEETSFQLDRLQAEPRCVAEEERGLRERMGPSYCLPPTFPKASVPREPGGPSPRVAILREEGSNGDREMADAFHLAGFEVWDVTMQDLCSGAIGLDTFRGVAFVGGFSYADVLGSAKGWAAAVTFHPRAGAELRRFRKRPDTFSLGVCNGCQLLALLGWVGGDPNEDAAEMGPDSQPARPGLLLRHNLSGRYESRWASVRVGPGPALMLRGMEGAVLPVWSAHGEGYVAFSSPELQAQIEARGLAPLHWADDDGNPTEQYPLNPNGSPGGVAGICSCDGRHLAVMPHPERAVRPWQWAWRPPPFDTLTTSPWLQLFINARNWTLEGSC [PFAS]”, for which the results for the melting temperature in series [1] (cell cycle stage: G1/S) and in series [1] (cell cycle stage: mitosis) were 51.9 °C and 51.5 °C, respectively. The “solubility change mitosis (log2)” value in series [2] was -0.0731. For the same sequence, the values for the thermal stability score in series [3] (setting [5]) and in series [3] (cell cycle stage: mitosis) were -3.18 and -3.7, respectively. The “solubility in G1/S (log2)” value in series [4] stood at 0.146.

As for “MSPWSWFLLQTLCLLPTGAASRRGAPGTANCELKPQQSELNSFLWTIKRDPPSYFFGTIHVPYTRVWDFIPDNSKEAFLQSSIVYFELDLTDPYTISALTSCQMLPQGENLQDVLPRDIYCRLKRHLEYVKLMMPLWMTPDQRGKGLYADYLFNAIAGNWERKRPVWVMLMVNSLTEVDIKSRGVPVLDLFLAQEAERLRKQTGAVEKVEEQCHPLNGLNFSQVIFALNQTLLQQESLRAGSLQIPYTTEDLIKHYNCGDLSSVILSHDSSQVPNFINATLPPQERITAQEIDSYLRRELIYKRNERIGKRVKALLEEFPDKGFFFAFGAGHFMGNNTVLDVLRREGYEVEHAPAGRPIHKGKSKKTSTRPTLSTIFAPKVPTLEVPAPEAVSSGHSTLPPLVSRPGSADTPSEAEQRFRKKRRRSQRRPRLRQFSDLWVRLEESDIVPQLQVPVLDRHISTELRLPRRGHSHHSQMVASSACLSLWTPVFWVLVLAFQTETPLL [TRABD2A]”, the figures for the melting temperature in series [1] (cell cycle stage: G1/S) and in series [1] (cell cycle stage: mitosis) were 53.9 °C and 53.4 °C, respectively. In addition, the “solubility change mitosis (log2)” value in series [2] is -0.031. In addition, the figures for the thermal stability score in series [3] (setting [5]) and in series [3] (cell cycle stage: mitosis) were 1.43 and 0.133, respectively. In addition, in series [4], the “solubility in G1/S (log2)” value is 0.299.

For the sequence “MSQWYELQQLDSKFLEQVHQLYDDSFPMEIRQYLAQWLEKQDWEHAANDVSFATIRFHDLLSQLDDQYSRFSLENNFLLQHNIRKSKRNLQDNFQEDPIQMSMIIYSCLKEERKILENAQRFNQAQSGNIQSTVMLDKQKELDSKVRNVKDKVMCIEHEIKSLEDLQDEYDFKCKTLQNREHETNGVAKSDQKQEQLLLKKMYLMLDNKRKEVVHKIIELLNVTELTQNALINDELVEWKRRQQSACIGGPPNACLDQLQNWFTIVAESLQQVRQQLKKLEELEQKYTYEHDPITKNKQVLWDRTFSLFQQLIQSSFVVERQPCMPTHPQRPLVLKTGVQFTVKLRLLVKLQELNYNLKVKVLFDKDVNERNTVKGFRKFNILGTHTKVMNMEESTNGSLAAEFRHLQLKEQKNAGTRTNEGPLIVTEELHSLSFETQLCQPGLVIDLETTSLPVVVISNVSQLPSGWASILWYNMLVAEPRNLSFFLTPPCARWAQLSEVLSWQFSSVTKRGLNVDQLNMLGEKLLGPNASPDGLIPWTRFCKENINDKNFPFWLWIESILELIKKHLLPLWNDGCIMGFISKERERALLKDQQPGTFLLRFSESSREGAITFTWVERSQNGGEPDFHAVEPYTKKELSAVTFPDIIRNYKVMAAENIPENPLKYLYPNIDKDHAFGKYYSRPKEAPEPMELDGPKGTGYIKTELISVSEVHPSRLQTTDNLLPMSPEEFDEVSRIVGSVEFDSMMNTV [STAT1]”, the melting temperature is 47.7 °C in series [1] (cell cycle stage: G1/S) and 48.5 °C in series [1] (cell cycle stage: mitosis). For the same sequence, in series [2], the “solubility change mitosis (log2)” value is -0.17. The thermal stability score in series [3] (setting [5]) was 1.15; in series [3] (cell cycle stage: mitosis), 3.11. For the same sequence, the “solubility in G1/S (log2)” value in series [4] turned out to be 0.104.

For “MSRARSHLRAALFLAAASARGITTQVAARRGLSAWPVPQEPSMEYQDAVRMLNTLQTNAGYLEQVKRQRGDPQTQLEAMELYLARSGLQVEDLDRLNIIHVTGTKGKGSTCAFTECILRSYGLKTGFFSSPHLVQVRERIRINGQPISPELFTKYFWRLYHRLEETKDGSCVSMPPYFRFLTLMAFHVFLQEKVDLAVVEVGIGGAYDCTNIIRKPVVCGVSSLGIDHTSLLGDTVEKIAWQKGGIFKQGVPAFTVLQPEGPLAVLRDRAQQISCPLYLCPMLEALEEGGPPLTLGLEGEHQRSNAALALQLAHCWLQRQDRHGAGEPKASRPGLLWQLPLAPVFQPTSHMRLGLRNTEWPGRTQVLRRGPLTWYLDGAHTASSAQACVRWFRQALQGRERPSGGPEVRVLLFNATGDRDPAALLKLLQPCQFDYAVFCPNLTEVSSTGNADQQNFTVTLDQVLLRCLEHQQHWNHLDEEQASPDLWSAPSPEPGGSASLLLAPHPPHTCSASSLVFSCISHALQWISQGRDPIFQPPSPPKGLLTHPVAHSGASILREAAAIHVLVTGSLHLVGGVLKLLEPALSQ [FPGS]”, the figures for the melting temperature in series [1] (cell cycle stage: G1/S) and in series [1] (cell cycle stage: mitosis) were 49.7 °C and 48.1 °C, respectively. Moreover, in series [2], the “solubility change mitosis (log2)” value was -0.165. The figures for the thermal stability score in series [3] (setting [5]) and in series [3] (cell cycle stage: mitosis) were 0.537 and 1.93, respectively. In addition, the “solubility in G1/S (log2)” value in series [4] was 0.114.

These data come from the supplement of paper PMC5998384.
